Assay results reported in PMC4374768.

Assays:
[1] = molecular target: T1, His6-TyrR (Enterobacter cloacae UW5?) (UniProt B2D1S2); assay: EMSA; conditions: 20% glycerol, 250 mM NaCl, 50 mM Tris-Cl pH 7.5, 5 mM MgCl2, 2.5 mM DTT, 2.5 mM EDTA, 0.1 mM ATP, 0.1 mM Trp, Phe or Tyr, 1 ug poly d(I-C), 50 ng DNA, room …
T1 sequence: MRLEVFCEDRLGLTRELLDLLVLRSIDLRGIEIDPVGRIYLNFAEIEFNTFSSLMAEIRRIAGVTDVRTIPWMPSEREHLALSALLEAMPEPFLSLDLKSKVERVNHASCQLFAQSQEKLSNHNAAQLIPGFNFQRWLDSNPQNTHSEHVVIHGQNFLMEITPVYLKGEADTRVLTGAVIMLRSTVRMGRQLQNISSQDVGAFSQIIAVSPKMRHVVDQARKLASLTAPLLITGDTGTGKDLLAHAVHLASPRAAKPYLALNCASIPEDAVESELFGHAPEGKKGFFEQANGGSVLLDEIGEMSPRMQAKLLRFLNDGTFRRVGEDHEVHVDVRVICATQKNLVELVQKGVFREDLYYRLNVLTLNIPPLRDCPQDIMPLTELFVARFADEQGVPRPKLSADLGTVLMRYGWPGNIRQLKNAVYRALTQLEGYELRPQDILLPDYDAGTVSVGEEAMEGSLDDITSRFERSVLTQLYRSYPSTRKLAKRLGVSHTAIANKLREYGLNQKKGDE

[2] = molecular target: T1, His6-TyrR (Enterobacter cloacae UW5?); assay: competition; conditions: 20% glycerol, 250 mM NaCl, 50 mM Tris-Cl pH 7.5, 5 mM MgCl2, 2.5 mM DTT, 2.5 mM EDTA, 0.1 mM ATP, 0.1 mM Trp, Phe or Tyr, 1 ug poly d(I-C), 50 ng DNA, room …

GGTTCGCATAACAGGTGTCCTTCTGACGTTGACCTCACTTTGAGTATTAAAGAAGCGTGATGGCTGTCCAGAATTGGTCGTAAGAAGGGCATAGAAAGAATGCTTTATAAAAAAGGCTGCGCTATGCTCTTTTTTTTCATGTAAATGTAAACGTATACACTGATTTTTCCTTTCAGCGCCAGAGGGCATCAGAATGGG (double strand) [akr-ipdC strong box mutant]
binding [1]: binds more weakly

GGTTCGCATAACAGGTGTCCTTCTGACGTTGACCTCACTTTGAGTATTAAAGAAGCGTGATGGCTGTCCAGAATTGGTCGTAAGAAGGGCATAGAAAGAATGCTTTATAAAAAAGGCTGCGCTATGCTCTTTTTTTTCATATAAATATAAACGTATATACTGATTTTTCCTTTCAGCGCCAGAGGGCATCAGAATGGG (double strand) [akr-ipdC double weak and strong box mutant]
binding [1]: no binding

GGTTCGCATAACAGGTGTCCTTCTGACGTTGACCTCACTTTGAGTATTAAAGAAGCGTGATGGCTGTCCAGAATTGGTCGTAAGAAGGGCATGGAAAGAATGCTTTACAAAAAAGGCTGCGCTATGCTCTTTTTTTTCATGTAAATGTAAACGTATACACTGATTTTTCCTTTCAGCGCCAGAGGGCATCAGAATGGG (double strand) [akr-ipdC intergenic region wild-type]
binding [1]: binds | binding [2]: binds

GGTTCGCATAACAGGTGTCCTTCTGACGTTGACCTCACTTTGAGTATTAAAGAAGCGTGATGGCTGTCCAGAATTGGTCGTAAGAAGGGCATGGAAAGAATGCTTTACAAAAAAGGCTGCGCTATGCTCTTTTTTTTCATATAAATATAAACGTATATACTGATTTTTCCTTTCAGCGCCAGAGGGCATCAGAATGGG (double strand) [akr-ipdC weak box mutant]
binding [1]: binds
